Where “and” joins values, the source holds several entries; their conditions need not be identical. Identical values can stand only once. Like-named read-outs stand apart in the source and are kept apart here.
Settings: for Any DLTs: first 2 cycles
[1] = G3, cols c1,3,5,7,9,11,13=0.03,0.1,0.3,1,3,5,10 mg/kg, c15 overall N=20
[2] = G4, cols c2,4,6,8,10,12,14=0.03,0.1,0.3,1,3,5,10 mg/kg, c16 overall N=20
[3] = G4, cols c2,4,6,8,10,12,14=0.03,0.1,0.3,1,3,5,10 mg/kg, last col overall N=20

Description: The phase 1a dose escalation study in US (ClinicalTrials.gov Identifier: NCT03707093) included accelerated titration (0.03, 0.1 and 0.3 mg/kg) and conventional dose escalation (1, 3, and 10 mg/kg). The phase 1a dose escalation study in China (ClinicalTrials.gov Identifier: NCT03802955) included accelerated titration (0.1 mg/kg) and conventional dose escalation (0.5, 1.5, 3, 5, and 10 mg/kg). […] Patients with advanced or metastatic solid tumors and/or non-Hodgkin lymphoma who were refractory or relapsed and exhausted all available therapies were enrolled and received treatment until disease progression, intolerable toxicity, withdrawal with consent, or for a maximum of 24 months.
Dose expansion studies were conducted for dose levels that were proven tolerable in Phase 1a and with evidence of clinical or biological activity. The dose levels studied in Phase 1 b were 3 mg/kg and 5 mg/kg.

ADG106: fully human agonistic anti-CD137 monoclonal IgG4 antibody; heavy chain SEQ ID NO: 10, light chain SEQ ID NO: 11
3/35: G3 GGT increase (US update) | Grade 3 drug-related TEAE fatigue (US update)
2/35: G3 ALP increase (US update) | Grade 3 AE anemia (US update) | Grade 3 AE decreased appetite (US update) | Grade 3 AE dyspnea (US update)
1 n (%): Any TEAEs Leading to Study Drug Discontinuation (3 mg/kg N=12) | Any TEAEs with Outcome of Death (3 mg/kg N=12) | Any TEAEs leading to Study Drug Dose Reduction or Interruption (Overall N=40)
1: DLT observed (China update Nov. 30, 2020, 18 dose escalation patients, Grade 4 neutrophil count decreased at 10 mg/kg)
10 n (%): Any SAE (Overall N=40)
26%: TEAE white blood cell count decrease (China update, 57 patients)
no drug related death: drug related death (up to 10 mg/kg)
~500 mg: total dose at which DLT occurs (US and Chinese patients)
1 (100) n (%): >=G3 adverse events (0.03 mg/kg N=1) | Any Drug Related TEAEs (0.03 mg/kg N=1) | Any TEAEs leading to Study Drug Dose Reduction or Interruption (0.03 mg/kg N=1) | >=G3 adverse events (0.3 mg/kg N=1) | Any Drug Related TEAEs (0.3 mg/kg N=1)
57%: albumin decreased, all grade (US update, 35 patients) | lymphocytes decrease, all grades (US update, 35 patients)
5/35: Grade 3 AE fatigue (US update)
2 (29) n (%): Drug Related SAE (5 mg/kg N=7)
1 (20) n (%): Any SAE (1.5 mg/kg N=5)
11%: AE anemia, regardless of causality (US update, 35 patients) | AE dizziness, regardless of causality (US update, 35 patients) | AE dyspnea, regardless of causality (US update, 35 patients) | AE tumor pain, regardless of causality (US update, 35 patients)
14%: AE arthralgia, regardless of causality (US update, 35 patients) | AE dehydration, regardless of causality (US update, 35 patients) | AE peripheral edema, regardless of causality (US update, 35 patients) | AE vomiting, regardless of causality (US update, 35 patients)
26 n (%): Any Drug Related TEAEs (Overall N=40)
2 (40) n (%): Any Drug Related TEAEs (1.5 mg/kg N=5) | Any SAE (10 mg/kg N=5) | Any TEAEs Leading to Study Drug Discontinuation (10 mg/kg N=5) | Drug Related SAE (10 mg/kg N=5) | SAE leading to Drug discontinuation (10 mg/kg N=5)
17: SAEs (all causes) (US update, in 13 patients)
15%: TEAE lymphopenia, regardless of causality (most common TEAEs (≥10%))
4 (80) n (%): >=G3 adverse events (10 mg/kg N=5) | Any Drug Related TEAEs (10 mg/kg N=5)
4 n (%): >=G3 adverse events (3 mg/kg N=12) | Drug Related SAE (Overall N=40)
2 n (%): Any TEAEs with Outcome of Death (Overall N=40)
4: SAEs related to the study treatment (US update, in 3 patients)
1 n (%) and 1 (14) n (%): Any DLTs (5 mg/kg N=7)
1 (14) n (%): Any TEAEs Leading to Study Drug Discontinuation (5 mg/kg N=7) | SAE leading to Drug discontinuation (5 mg/kg N=7)
15 n (%): >=G3 adverse events (Overall N=40)
6%: total bilirubin increased (US update, 35 patients)
3 (43) n (%): Any SAE (5 mg/kg N=7)
32%: TEAE aspartate aminotransferase increase (China update, 57 patients)
1 (25) n (%): Any SAE (1 mg/kg N=4) | Any TEAEs Leading to Study Drug Discontinuation (1 mg/kg N=4) | Any TEAEs with Outcome of Death (1 mg/kg N=4)
around 10 mg/kg: dose at which DLT occurs, by body weight (US and Chinese patients)
0 n (%): Any SAE (0.03 mg/kg N=1) | Any TEAEs Leading to Study Drug Discontinuation (0.03 mg/kg N=1) | Any TEAEs with Outcome of Death (0.03 mg/kg N=1) | Drug Related SAE (0.03 mg/kg N=1) | SAE leading to Drug discontinuation (0.03 mg/kg N=1) | Any DLTs (0.03 mg/kg N=1) | >=G3 adverse events (0.1 mg/kg N=2) | Any SAE (0.1 mg/kg N=2) | Any TEAEs Leading to Study Drug Discontinuation (0.1 mg/kg N=2) | Any TEAEs leading to Study Drug Dose Reduction or Interruption (0.1 mg/kg N=2) | Any TEAEs with Outcome of Death (0.1 mg/kg N=2) | Drug Related SAE (0.1 mg/kg N=2) | SAE leading to Drug discontinuation (0.1 mg/kg N=2) | Any DLTs (0.1 mg/kg N=2) | Any SAE (0.3 mg/kg N=1) | Any TEAEs Leading to Study Drug Discontinuation (0.3 mg/kg N=1) | Any TEAEs leading to Study Drug Dose Reduction or Interruption (0.3 mg/kg N=1) | Any TEAEs with Outcome of Death (0.3 mg/kg N=1) | Drug Related SAE (0.3 mg/kg N=1) | SAE leading to Drug discontinuation (0.3 mg/kg N=1) | Any DLTs (0.3 mg/kg N=1) | >=G3 adverse events (0.5 mg/kg N=3) | Any SAE (0.5 mg/kg N=3) | Any TEAEs Leading to Study Drug Discontinuation (0.5 mg/kg N=3) | Any TEAEs leading to Study Drug Dose Reduction or Interruption (0.5 mg/kg N=3) | Any TEAEs with Outcome of Death (0.5 mg/kg N=3) | Drug Related SAE (0.5 mg/kg N=3) | SAE leading to Drug discontinuation (0.5 mg/kg N=3) | Any DLTs (0.5 mg/kg N=3) | Any TEAEs leading to Study Drug Dose Reduction or Interruption (1 mg/kg N=4) | Drug Related SAE (1 mg/kg N=4) | SAE leading to Drug discontinuation (1 mg/kg N=4) | Any DLTs (1 mg/kg N=4) | >=G3 adverse events (1.5 mg/kg N=5) | Any TEAEs Leading to Study Drug Discontinuation (1.5 mg/kg N=5) | Any TEAEs leading to Study Drug Dose Reduction or Interruption (1.5 mg/kg N=5) | Any TEAEs with Outcome of Death (1.5 mg/kg N=5) | Drug Related SAE (1.5 mg/kg N=5) | SAE leading to Drug discontinuation (1.5 mg/kg N=5) | Any DLTs (1.5 mg/kg N=5) | Any TEAEs leading to Study Drug Dose Reduction or Interruption (3 mg/kg N=12) | Drug Related SAE (3 mg/kg N=12) | SAE leading to Drug discontinuation (3 mg/kg N=12) | Any DLTs (3 mg/kg N=12) | Any TEAEs leading to Study Drug Dose Reduction or Interruption (5 mg/kg N=7) | Any TEAEs with Outcome of Death (5 mg/kg N=7) | Any TEAEs leading to Study Drug Dose Reduction or Interruption (10 mg/kg N=5) | Any TEAEs with Outcome of Death (10 mg/kg N=5)
2 (100) n (%): Any Drug Related TEAEs (0.1 mg/kg N=2)
3 (75) n (%): >=G3 adverse events (1 mg/kg N=4)
29%: AE fatigue, regardless of causality (US update, 35 patients)
below 500 mg: total dose at which ADG106 was well tolerated (US and China trials)
There was no G3 or G4 decreases: G3 or G4 decreases of leukocytes, platelets, and neutrophils (US update)
89%: hemoglobin decrease, all grades (US update, 35 patients)
10%: TEAE anemia, regardless of causality (most common TEAEs (≥10%)) | TEAE arthralgia, regardless of causality (most common TEAEs (≥10%)) | TEAE decreased appetite, regardless of causality (most common TEAEs (≥10%)) | TEAE dyspnea, regardless of causality (most common TEAEs (≥10%)) | TEAE respiratory failure, regardless of causality (most common TEAEs (≥10%))
9%: patients discontinued due to adverse events (US update, 35 patients)
4 (100) n (%): Any Drug Related TEAEs (1 mg/kg N=4)
4 (57) n (%): Any Drug Related TEAEs (5 mg/kg N=7)
35%: TEAE C-reactive protein increase (China update, 57 patients) | patients with G3 to 4 TEAEs (China update, 21 patients)
25%: TEAE constipation (China update, 57 patients) | TEAE rash (China update, 57 patients)
2 (67) n (%): Any Drug Related TEAEs (0.5 mg/kg N=3)
23%: TEAE cough (China update, 57 patients) | TEAE hypochloraemia (China update, 57 patients) | AE nausea, regardless of causality (US update, 35 patients) | ALT increased, all grade (US update, 35 patients)
30%: TEAE asthenia (China update, 57 patients) | TEAE hypoalbuminaemia (China update, 57 patients) | TEAE hyponatraemia (China update, 57 patients)
5 n (%): Any TEAEs Leading to Study Drug Discontinuation (Overall N=40)
15: SAEs (all causes) (China update, in 11 patients)
7: SAEs related to the study treatment (China update)
3 n (%): Any SAE (3 mg/kg N=12) | SAE leading to Drug discontinuation (Overall N=40) | Any DLTs (Overall N=40)
46%: TEAE anemia (China update, 57 patients)
there was no≥Grade 4 TEAEs: ≥Grade 4 TEAEs (Table 6 population)
less than 3 mg/kg: dose below which ≥G3 treatment related AEs were not observed (US and China trials)
2 (39) n (%): >=G3 adverse events (5 mg/kg N=7)
2: DLTs observed (US update Nov. 30, 2020, 7 dose escalation cohorts 0.03-10 mg/kg Q3W)
21%: TEAE blood present in urine (China update, 57 patients) | TEAE platelet count increase (China update, 57 patients) | TEAE pruritus (China update, 57 patients) | TEAE white blood cell count increase (China update, 57 patients)
safe and well tolerated: tolerability of flat Q3W IV dose of 300 mg and 400 mg (US trial)
1/35: Grade 3 AE tumor pain (US update) | Grade 3 AE vomiting (US update) | Grade 3 drug-related TEAE AST increase (US update) | Grade 3 drug-related TEAE adrenal insufficiency (US update) | Grade 3 drug-related TEAE anemia (US update) | Grade 3 drug-related TEAE decreased appetite (US update) | Grade 3 drug-related TEAE dyspnea (US update) | Grade 3 drug-related TEAE influenza like symptoms (US update)
6 n (%): Any Drug Related TEAEs (3 mg/kg N=12)
there was no G4 drug-related TEAEs: G4 drug-related TEAEs (US update)
39%: TEAE proteinuria (China update, 57 patients)
0: Lab abnormality Leukocyte ↓, patients [1] | Lab abnormality Neutrophil ↓, patients [1] | Lab abnormality Platelet ↓, patients [1] | TEAE Arthralgia, patients [1] | TEAE Constipation, patients [1] | TEAE Cough, patients [1] | TEAE Dehydration, patients [1] | TEAE Fever, patients [1] | TEAE Hypothyroidism, patients [1] | TEAE Myalgia, patients [1] | TEAE Peripheral edema, patients [1] | TEAE Weight ↓, patients [1] | Lab abnormality Hemoglobin ↓, patients [2] | Lab abnormality Leukocyte ↓, patients [2] | Lab abnormality Neutrophil ↓, patients [2] | Lab abnormality Platelet ↓, patients [2] | TEAE (preferred term not given), patients [3] | TEAE AST increase, patients [3] | TEAE Anemia, patients [3] | TEAE Appetite ↓, patients [3] | TEAE Arthralgia, patients [3] | TEAE Constipation, patients [3] | TEAE Cough, patients [3] | TEAE Dehydration, patients [3] | TEAE Diarrhea, patients [3] | TEAE Dyspnea, patients [3] | TEAE Fever, patients [3] | TEAE Hypothyroidism, patients [3] | TEAE Lymphopenia, patients [3] | TEAE Myalgia, patients [3] | TEAE Peripheral edema, patients [3] | TEAE Respiratory failure, patients [3] | TEAE Tumor pain, patients [3] | TEAE Vomiting, patients [3] | TEAE Weight ↓, patients [3]
43%: AST increased, all grades (US update, 35 patients)
20%: AE decreased appetite, regardless of causality (US update, 35 patients)

Reference: patent US20230133118A1, “COMPOSITIONS AND METHODS FOR TREATING CANCER” (Adagene AG, priority 2020, published 2023)
